Reference: paper PMC9114370, “Heat shock protein Grp78/BiP/HspA5 binds directly to TDP-43 and mitigates toxicity associated with disease pathology” (Scientific Reports, 2022)
Where “and” joins values, the source holds several entries; their conditions need not be identical. Identical values can stand only once.

Assays:
Settings in all cases: both partners purified
[1] = target: T1, HspA5 substrate binding domain (SBD) (human, UniProt P11021 420-654); assay: MST; 50 nM labelled TDP-43 construct (RED-NTA labelling), ranging concentrations of Hsp70 SBD titrated, MST buffer, premium capillaries, 40% LED, medium MST power; no RNA
T1 construct: SBD approximately 200 amino acids long; vector pSpeedET; also called HspA5-SBD; Grp78; source: E. coli BL21-Codon plus, purified (cobalt IMAC, TEV cleavage)
T1 sequence (P11021 420-654): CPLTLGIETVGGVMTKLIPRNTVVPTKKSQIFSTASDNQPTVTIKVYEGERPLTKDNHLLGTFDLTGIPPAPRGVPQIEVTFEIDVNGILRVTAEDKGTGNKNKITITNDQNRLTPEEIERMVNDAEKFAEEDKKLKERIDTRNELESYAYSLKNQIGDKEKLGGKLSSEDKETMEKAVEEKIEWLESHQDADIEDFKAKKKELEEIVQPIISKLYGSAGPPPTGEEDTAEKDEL

[2] = target: T2, HspA1A substrate binding domain (SBD) (human, UniProt P0DMV8 395-641); assay: as above
T2 construct: SBD approximately 200 amino acids long; vector pSpeedET; also called Hsp70 SBD; source: E. coli BL21-Codon plus, purified (cobalt IMAC, TEV cleavage)
T2 sequence (P0DMV8 395-641): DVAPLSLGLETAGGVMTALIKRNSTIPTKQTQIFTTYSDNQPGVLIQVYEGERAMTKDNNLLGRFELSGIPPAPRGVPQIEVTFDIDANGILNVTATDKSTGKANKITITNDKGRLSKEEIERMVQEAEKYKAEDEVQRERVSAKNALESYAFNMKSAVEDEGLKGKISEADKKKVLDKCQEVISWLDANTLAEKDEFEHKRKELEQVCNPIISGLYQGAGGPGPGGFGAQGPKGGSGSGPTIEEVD

[3] = target: T1, HspA5 substrate binding domain (SBD); assay: MST; NTA-labelled TDP-43(102-269), HspA5 titrated, in the presence of UG6 RNA (increasing concentrations; concentration not given)

B1: TDP43_(102-269)-His (domain or fragment, human, UniProt Q13148 102-269, looked up)
chain: KTSDLIVLGLPWKTTEQDLKEYFSTFGEVLMVQVKKDLKTGHSKGFGFVRFTEYETQVKVMSQRHMIDGRWCDCKLPNSKQSQDEPLRSRKVFVGRCTEDMTEDELREFFSQYGDVMDVFIPKPFRAFAFVTFADDQIAQSLCGEDLIIKGISVHISNAEPKHNSNRQ
modifications: labelled with Monolith Protein Labeling Kit RED-NTA
notes: also called RRM domain; RRM domains of TDP-43; source: recombinantly expressed, purified
- Kd [1]: 0.298 µM and 0.89 µM
- Kd [2]: 2.35 µM
- Kd [3]: 28.3 µM
